For two molecules, EC50 and IC50 results are on record in patent CN115975019A (INST PATHOGEN BIOLOGY CAMS, dated 2023).

This experiment concerns the target SARS-CoV-2 刺突RBD蛋白 (Sinobiological) (SARS-CoV-2, UniProt P0DTC2 319-541).

In general, EC50 refers to the midpoint of the concentration-response curve. Broadly, the IC50 is the midpoint of a concentration-inhibition curve.

B1: A70抗体 (antibody, V domains shown)
VH: QITLKESGPTLVKPTQTLTLTCTFSGFSLDTPGVAIGWIRQPPGRALEWLGLIYWDGDERYNPSLTSRVTLTKDTSKNQVVLTMTNVDSVDTGTYFCGHKTIPTIFGVWGQGAPVTVSS
VL: QSALTQPASVSGSPGQSITISCAATSGDFGVFNYVSWYQQHPGKAPKLIIFEVSSRPSGVSNRFSGSKSGNTASLTVSGLQAEDEAVYHCSSYSTSSVVFGGGTKLTVL
notes: also called 抗体A70
Regarding B1, the EC50 came to 0.0511 µg/mL and the IC50 turned out to be 0.515 µg/mL.

B2: A46抗体 (antibody, V domains shown)
VH: EVQLLESGGGLIQPGGSLRLSCAVSEFIVSRNYMSWVRQAPGKGLEWVSVLYPGGSTFYADSVKGRFTISRDESTNTLFLQMNTLRVEDTAVYYCARDFGDFYFDFWGQGTLVTVSS
VL: EIVLTQSPGTLSLSPGQRAALSCRASQSVSTYLAWYQQKPGQAPRLLIHDASSRASGVPDRFSGTGSGTDFTLTITRLEPEDFAVYYCQQYGTSPRTFGQGTKLEIK
notes: also called 抗体A46
B2 displayed an EC50 of 0.0355 µg/mL and an IC50 of 0.703 µg/mL.
